Laboratory results as given in the supplement of paper PMC10567573.

B1: TFE3 (parent)
chain: FPSDHLGDLGDPFHLGLEDILMEE

Variants of: B1
Experiment: protein stability index of a GFP-peptide fusion (GPS, HEK-293T) (PSI 1-6); higher = more stable
Details: c terminus: a fixed tail appended
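Further: lentivirally expressed fusions sorted by FACS into six bins by GFP to DsRed ratio, PSI derived from sequencing read proportions per bin multiplied by bin number.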

Variant | protein stability index
FPSDHLGDDGDPFHLGLEDILMEE | 4.5
FPSDHLGDRGDPFHLGLEDILMEE | 3.66
FPSDHLGDAGDPFHLGLEDILMEE | 3.63
FPSDHLGDMGDPFHLGLEDILMEE | 3.74
FPSDHLGDYGDPFHLGLEDILMEE | 3.29
FPSDHLGDSGDPFHLGLEDILMEE | 3.69
FPSDHLGDCGDPFHLGLEDILMEE | 3.5
FPSDHLGDWGDPFHLGLEDILMEE | 2.19
FPSDHLGDFGDPFHLGLEDILMEE | 3.45
FPSDHLGDKGDPFHLGLEDILMEE | 3.94
FPSDHLGDHGDPFHLGLEDILMEE | 3.66
FPSDHLGDNGDPFHLGLEDILMEE | 4.32
FPSDHLGDGGDPFHLGLEDILMEE | 3.54
FPSDHLGDVGDPFHLGLEDILMEE | 3.48
FPSDHLGDQGDPFHLGLEDILMEE | 3.64
FPSDHLGDTGDPFHLGLEDILMEE | 3.79
FPSDHLGDPGDPFHLGLEDILMEE | 3.42
FPSDHLGDEGDPFHLGLEDILMEE | 4
FPSDHLGDIGDPFHLGLEDILMEE | 3.54
FPSDHLGKLGDPFHLGLEDILMEE | 2.42
FPSDHLGLLGDPFHLGLEDILMEE | 2.33
FPSDHLGRLGDPFHLGLEDILMEE | 2.15
FPSDHLGFLGDPFHLGLEDILMEE | 2.52
FPSDHLGCLGDPFHLGLEDILMEE | 2.88

Variant | protein stability index
FPSDHLGSLGDPFHLGLEDILMEE | 3.19
FPSDHLGALGDPFHLGLEDILMEE | 2.96
FPSDHLGNLGDPFHLGLEDILMEE | 3.28
FPSDHLGVLGDPFHLGLEDILMEE | 3.1
FPSDHLGGLGDPFHLGLEDILMEE | 3.09
FPSDHLGTLGDPFHLGLEDILMEE | 2.36
FPSDHLGELGDPFHLGLEDILMEE | 3.73
FPSDHLGWLGDPFHLGLEDILMEE | 1.98
FPSDHLGYLGDPFHLGLEDILMEE | 2.14
FPSDHLGQLGDPFHLGLEDILMEE | 3.07
FPSDHLGMLGDPFHLGLEDILMEE | 2.96
FPSDHLGHLGDPFHLGLEDILMEE | 2.73
FPSDHLGPLGDPFHLGLEDILMEE | 3.31
FPSDHLGILGDPFHLGLEDILMEE | 3.03
FPSDQLGDLGDPFHLGLEDILMEE | 3.85
FPSDYLGDLGDPFHLGLEDILMEE | 3.18
FPSDMLGDLGDPFHLGLEDILMEE | 3.33
FPSDCLGDLGDPFHLGLEDILMEE | 3.73
FPSDTLGDLGDPFHLGLEDILMEE | 3.88
FPSDKLGDLGDPFHLGLEDILMEE | 2.83
FPSDNLGDLGDPFHLGLEDILMEE | 3.87
FPSDPLGDLGDPFHLGLEDILMEE | 3.68
FPSDELGDLGDPFHLGLEDILMEE | 4.15
FPSDDLGDLGDPFHLGLEDILMEE | 4.42

Variant | protein stability index
FPSDILGDLGDPFHLGLEDILMEE | 3.08
FPSDALGDLGDPFHLGLEDILMEE | 4.06
FPSDLLGDLGDPFHLGLEDILMEE | 3.3
FPSDGLGDLGDPFHLGLEDILMEE | 3.36
FPSDFLGDLGDPFHLGLEDILMEE | 3.28
FPSDRLGDLGDPFHLGLEDILMEE | 3.52
FPSDVLGDLGDPFHLGLEDILMEE | 3.87
FPSDWLGDLGDPFHLGLEDILMEE | 1.35
FPSDSLGDLGDPFHLGLEDILMEE | 3.81
FPSIHLGDLGDPFHLGLEDILMEE | 2.76
FPSKHLGDLGDPFHLGLEDILMEE | 1.87
FPSLHLGDLGDPFHLGLEDILMEE | 2.37
FPSCHLGDLGDPFHLGLEDILMEE | 2.33
FPSHHLGDLGDPFHLGLEDILMEE | 1.91
FPSMHLGDLGDPFHLGLEDILMEE | 2.77
FPSRHLGDLGDPFHLGLEDILMEE | 2.04
FPSVHLGDLGDPFHLGLEDILMEE | 2.59
FPSGHLGDLGDPFHLGLEDILMEE | 2.49
FPSQHLGDLGDPFHLGLEDILMEE | 3.03
FPSSHLGDLGDPFHLGLEDILMEE | 2.51
FPSEHLGDLGDPFHLGLEDILMEE | 3.77
FPSWHLGDLGDPFHLGLEDILMEE | 1.7
FPSPHLGDLGDPFHLGLEDILMEE | 3.11
FPSYHLGDLGDPFHLGLEDILMEE | 2.75

Variant | protein stability index
FPSFHLGDLGDPFHLGLEDILMEE | 2.75
FPSNHLGDLGDPFHLGLEDILMEE | 3.22
FPSTHLGDLGDPFHLGLEDILMEE | 2.35
FPSDHLGDLGDPGHLGLEDILMEE | 4.97
FPSDHLGDLGDPCHLGLEDILMEE | 4.62
FPSDHLGDLGDPLHLGLEDILMEE | 4.25
FPSDHLGDLGDPVHLGLEDILMEE | 4.89
FPSDHLGDLGDPSHLGLEDILMEE | 4.87
FPSDHLGDLGDPMHLGLEDILMEE | 4.7
FPSDHLGDLGDPEHLGLEDILMEE | 5.21
FPSDHLGDLGDPRHLGLEDILMEE | 4.74
FPSDHLGDLGDPKHLGLEDILMEE | 4.89
FPSDHLGDLGDPQHLGLEDILMEE | 4.61
FPSDHLGDLGDPIHLGLEDILMEE | 4.34
FPSDHLGDLGDPHHLGLEDILMEE | 5.09
FPSDHLGDLGDPDHLGLEDILMEE | 5.22
FPSDHLGDLGDPWHLGLEDILMEE | 1.76
FPSDHLGDLGDPAHLGLEDILMEE | 4.62
FPSDHLGDLGDPPHLGLEDILMEE | 4.91
FPSDHLGDLGDPTHLGLEDILMEE | 4.93
FPSDHLGDLGDPNHLGLEDILMEE | 4.97
FPSDHLGDLNDPFHLGLEDILMEE | 2.97
FPSDHLGDLCDPFHLGLEDILMEE | 2.93
FPSDHLGDLLDPFHLGLEDILMEE | 3.05

Variant | protein stability index
FPSDHLGDLIDPFHLGLEDILMEE | 3.04
FPSDHLGDLPDPFHLGLEDILMEE | 3.47
FPSDHLGDLRDPFHLGLEDILMEE | 3.3
FPSDHLGDLHDPFHLGLEDILMEE | 2.95
FPSDHLGDLVDPFHLGLEDILMEE | 3.63
FPSDHLGDLDDPFHLGLEDILMEE | 3.37
FPSDHLGDLSDPFHLGLEDILMEE | 3.15
FPSDHLGDLEDPFHLGLEDILMEE | 3.67
FPSDHLGDLFDPFHLGLEDILMEE | 2.54
FPSDHLGDLKDPFHLGLEDILMEE | 3.14
FPSDHLGDLYDPFHLGLEDILMEE | 2.21
FPSDHLGDLWDPFHLGLEDILMEE | 2.76
FPSDHLGDLMDPFHLGLEDILMEE | 3.33
FPSDHLGDLQDPFHLGLEDILMEE | 3.05
FPSDHLGDLADPFHLGLEDILMEE | 3.41
FPSDHLGDLTDPFHLGLEDILMEE | 3.46
FPSDHNGDLGDPFHLGLEDILMEE | 3.85
FPSDHRGDLGDPFHLGLEDILMEE | 2.98
FPSDHAGDLGDPFHLGLEDILMEE | 3.69
FPSDHTGDLGDPFHLGLEDILMEE | 3.79
FPSDHHGDLGDPFHLGLEDILMEE | 3.98
FPSDHEGDLGDPFHLGLEDILMEE | 3.96
FPSDHVGDLGDPFHLGLEDILMEE | 3.81
FPSDHDGDLGDPFHLGLEDILMEE | 4.09

Variant | protein stability index
FPSDHGGDLGDPFHLGLEDILMEE | 3.64
FPSDHFGDLGDPFHLGLEDILMEE | 3.16
FPSDHPGDLGDPFHLGLEDILMEE | 3.57
FPSDHCGDLGDPFHLGLEDILMEE | 3.42
FPSDHWGDLGDPFHLGLEDILMEE | 1.75
FPSDHSGDLGDPFHLGLEDILMEE | 3.35
FPSDHMGDLGDPFHLGLEDILMEE | 3.71
FPSDHYGDLGDPFHLGLEDILMEE | 2.78
FPSDHKGDLGDPFHLGLEDILMEE | 3.22
FPSDHIGDLGDPFHLGLEDILMEE | 3.37
FPSDHQGDLGDPFHLGLEDILMEE | 3.6
FPSDHLGDLGDYFHLGLEDILMEE | 3.4
FPSDHLGDLGDAFHLGLEDILMEE | 3.11
FPSDHLGDLGDCFHLGLEDILMEE | 3.62
FPSDHLGDLGDNFHLGLEDILMEE | 4.3
FPSDHLGDLGDRFHLGLEDILMEE | 4.1
FPSDHLGDLGDVFHLGLEDILMEE | 3.5
FPSDHLGDLGDGFHLGLEDILMEE | 4.1
FPSDHLGDLGDFFHLGLEDILMEE | 4.01
FPSDHLGDLGDTFHLGLEDILMEE | 4.24
FPSDHLGDLGDLFHLGLEDILMEE | 2.81
FPSDHLGDLGDMFHLGLEDILMEE | 3.46
FPSDHLGDLGDQFHLGLEDILMEE | 4.29
FPSDHLGDLGDIFHLGLEDILMEE | 3.23

Variant | protein stability index
FPSDHLGDLGDEFHLGLEDILMEE | 4.15
FPSDHLGDLGDHFHLGLEDILMEE | 3.98
FPSDHLGDLGDKFHLGLEDILMEE | 4.02
FPSDHLGDLGDWFHLGLEDILMEE | 2.71
FPSDHLGDLGDSFHLGLEDILMEE | 4.84
FPSDHLGDLGDDFHLGLEDILMEE | 4.35
FPSDHLGDLGCPFHLGLEDILMEE | 2.74
FPSDHLGDLGSPFHLGLEDILMEE | 2.13
FPSDHLGDLGRPFHLGLEDILMEE | 3.72
FPSDHLGDLGKPFHLGLEDILMEE | 3.42
FPSDHLGDLGGPFHLGLEDILMEE | 3.52
FPSDHLGDLGWPFHLGLEDILMEE | 1.89
FPSDHLGDLGEPFHLGLEDILMEE | 4.24
FPSDHLGDLGQPFHLGLEDILMEE | 4.41
FPSDHLGDLGLPFHLGLEDILMEE | 2.89
FPSDHLGDLGVPFHLGLEDILMEE | 3.32
FPSDHLGDLGHPFHLGLEDILMEE | 2.27
FPSDHLGDLGNPFHLGLEDILMEE | 2.12
FPSDHLGDLGFPFHLGLEDILMEE | 2.66
FPSDHLGDLGAPFHLGLEDILMEE | 3.23
FPSDHLGDLGPPFHLGLEDILMEE | 3.87
FPSDHLGDLGTPFHLGLEDILMEE | 2.92
FPSDHLGDLGIPFHLGLEDILMEE | 3.23
FPSDHLGDLGYPFHLGLEDILMEE | 2.67

Variant | protein stability index
FPSDHLGDLGMPFHLGLEDILMEE | 3.08
FPSDHLRDLGDPFHLGLEDILMEE | 3.36
FPSDHLDDLGDPFHLGLEDILMEE | 4.3
FPSDHLYDLGDPFHLGLEDILMEE | 3.22
FPSDHLEDLGDPFHLGLEDILMEE | 3.92
FPSDHLLDLGDPFHLGLEDILMEE | 3.41
FPSDHLVDLGDPFHLGLEDILMEE | 3.77
FPSDHLMDLGDPFHLGLEDILMEE | 3.29
FPSDHLTDLGDPFHLGLEDILMEE | 3.3
FPSDHLPDLGDPFHLGLEDILMEE | 4.3
FPSDHLFDLGDPFHLGLEDILMEE | 2.69
FPSDHLIDLGDPFHLGLEDILMEE | 3.12
FPSDHLQDLGDPFHLGLEDILMEE | 3.67
FPSDHLADLGDPFHLGLEDILMEE | 3.94
FPSDHLSDLGDPFHLGLEDILMEE | 3.73
FPSDHLHDLGDPFHLGLEDILMEE | 3.11
FPSDHLKDLGDPFHLGLEDILMEE | 3.07
FPSDHLNDLGDPFHLGLEDILMEE | 3.43
FPSDHLWDLGDPFHLGLEDILMEE | 2.73
FPSDHLCDLGDPFHLGLEDILMEE | 2.89
